From patent US8008542B2, “Compositions, cells, and plants that include BKI1, a negative regulator of BRI1-mediated BR signaling” (The Salk Institute for Biological Studies, priority 2007, dated 2011)

T1: interaction between the kinase domains of BRI1 and BAK1 (Arabidopsis thaliana, UniProt O22476)
T1 construct: His (C); made in house; host or cells: BRI1-KD-HIS: TNT T7 coupled reticulocyte lysate (Promega)
T1 sequence (O22476 883-1158 limits assumed): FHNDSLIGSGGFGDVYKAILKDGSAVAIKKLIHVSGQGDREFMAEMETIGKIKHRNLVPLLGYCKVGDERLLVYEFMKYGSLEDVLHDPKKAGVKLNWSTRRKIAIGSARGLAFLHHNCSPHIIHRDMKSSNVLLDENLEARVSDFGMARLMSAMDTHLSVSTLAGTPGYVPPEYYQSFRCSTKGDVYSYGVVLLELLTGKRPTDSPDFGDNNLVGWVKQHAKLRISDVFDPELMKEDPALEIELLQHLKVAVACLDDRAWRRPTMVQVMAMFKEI

T2: endogenous BRI1 (Arabidopsis thaliana, UniProt O22476)
T2 construct: from tissue; host or cells: short-day grown seedlings of Col-0 transgenic plants expressing BKI1-FLAG
T2 sequence (O22476 24-1196): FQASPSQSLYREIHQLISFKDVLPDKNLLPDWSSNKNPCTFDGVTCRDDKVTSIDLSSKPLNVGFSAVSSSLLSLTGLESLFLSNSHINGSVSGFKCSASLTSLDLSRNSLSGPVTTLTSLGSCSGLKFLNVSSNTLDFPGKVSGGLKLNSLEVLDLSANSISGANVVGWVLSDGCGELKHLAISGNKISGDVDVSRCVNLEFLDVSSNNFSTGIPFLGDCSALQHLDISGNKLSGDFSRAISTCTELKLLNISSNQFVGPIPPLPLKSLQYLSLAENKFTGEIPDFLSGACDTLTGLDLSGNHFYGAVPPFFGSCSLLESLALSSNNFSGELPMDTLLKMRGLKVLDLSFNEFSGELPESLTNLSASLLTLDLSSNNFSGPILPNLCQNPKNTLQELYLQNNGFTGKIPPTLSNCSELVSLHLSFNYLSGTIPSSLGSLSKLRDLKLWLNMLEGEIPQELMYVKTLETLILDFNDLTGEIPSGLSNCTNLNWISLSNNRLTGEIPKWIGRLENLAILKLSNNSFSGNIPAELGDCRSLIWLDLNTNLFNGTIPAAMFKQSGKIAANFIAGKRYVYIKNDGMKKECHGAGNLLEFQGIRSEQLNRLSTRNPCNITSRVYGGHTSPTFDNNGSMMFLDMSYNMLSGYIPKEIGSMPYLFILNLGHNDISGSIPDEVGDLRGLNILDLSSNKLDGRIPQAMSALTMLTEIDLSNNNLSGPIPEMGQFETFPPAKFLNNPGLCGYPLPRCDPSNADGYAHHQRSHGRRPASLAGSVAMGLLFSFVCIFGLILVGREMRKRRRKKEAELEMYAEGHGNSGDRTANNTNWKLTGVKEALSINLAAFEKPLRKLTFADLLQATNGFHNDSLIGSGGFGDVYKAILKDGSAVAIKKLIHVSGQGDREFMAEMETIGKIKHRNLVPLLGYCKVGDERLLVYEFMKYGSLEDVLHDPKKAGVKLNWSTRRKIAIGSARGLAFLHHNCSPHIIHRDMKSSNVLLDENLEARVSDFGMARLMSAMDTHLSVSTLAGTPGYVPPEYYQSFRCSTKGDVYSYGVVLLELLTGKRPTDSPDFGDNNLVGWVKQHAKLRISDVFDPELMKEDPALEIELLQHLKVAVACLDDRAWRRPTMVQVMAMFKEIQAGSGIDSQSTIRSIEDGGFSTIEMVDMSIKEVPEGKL

B1: MBP-BKI1: BKI1-maltose binding protein fusion (N-terminal MBP) (protein)
chain: METNLQQVKNSSQTFSEKQNPKQEASPSPISSTCSSPSHDFSFTISLQPLSSSSKHISPTLRSPSKTTSSYQQTDPFAVDLSPADEIFFHGHLLPLHLLSHLPVSPRTSTGSYNDGFTLPVKDILPDQPTNNNNNTENAITNISTEAKDDNTEDKAEGEIRVKTKPIKSFSLFGLSKWRKGFESNEREQEQQQQKIKKPMSLDLSHAVKKYIRMLFQKRGNGTQFWNRRQTSSYSFSSSLMGPNGNSKTMINGSYNKRDLIRGRRGELFSAPASMRTSPTNSGHLRVSTAGLSSSSGSTSSSSSDSTMEELQAAIQAAIAHCKNSSAVDRDDKVKDS
modifications: left off: large carriers
B2: BKI1-FLAG: BKI1 with three copies of FLAG fused at the C-terminal end (protein)
chain: METNLQQVKNSSQTFSEKQNPKQEASPSPISSTCSSPSHDFSFTISLQPLSSSSKHISPTLRSPSKTTSSYQQTDPFAVDLSPADEIFFHGHLLPLHLLSHLPVSPRTSTGSYNDGFTLPVKDILPDQPTNNNNNTENAITNISTEAKDDNTEDKAEGEIRVKTKPIKSFSLFGLSKWRKGFESNEREQEQQQQKIKKPMSLDLSHAVKKYIRMLFQKRGNGTQFWNRRQTSSYSFSSSLMGPNGNSKTMINGSYNKRDLIRGRRGELFSAPASMRTSPTNSGHLRVSTAGLSSSSGSTSSSSSDSTMEELQAAIQAAIAHCKNSSAVDRDDKVKDSDYKDDDDKVKLDYKDDDDKVKLDYKDDDDKVKL

Assays:
[1] = biological target: T1, interaction between the kinase domains of BRI1 and BAK1; assay: GST pull-down of 35S-BRI1-KD-HIS by GST-BAK1-KD in vitro; type: binding; conditions: 10 μM of MBP-BKI1, five replicates, p=0.000013
Procedure: Seedlings were grown on MS medium containing 1 μM of BRZ220. The time of BL treatment is indicated. Top panels: BKI1-YFP; Lower panels: myriBKI1-YFP. […] Immunoblots with anti-GFP show levels of myriBKI1-YFP and BKI1-YFP. Bottom band: loading control. […] The total ^35S-Met labeled BRI1-KD-HIS co-precipitated by GST-BAK1-KD was defined as “1”. Five replicates were conducted. Error bars indicate standard error. 1, GST-BAK1-KD±35S-BRI1-KD-HIS; 2, GST-BAK1-KD+35S-BRI1-KD-HIS+10 μM of MBP; 3, GST-BAK1-KD+35S-BRI1-KD-HIS+10 μM of MBP-BKI1. […] Without BL, BRI1 kinase is kept in a basal state by both its own carboxyl terminal domain and by an interaction with BKI1. Brassinosteroid binding to the extracellular domain of BRI1 induces a conformational change of the kinase domain, leading to the phosphorylation of the C-terminal domain of BRI1 and BKI1, the dissociation of BKI1 from the plasma membrane, and the release of autoinhibition of BRI1. These events lead to the full activation of BRI1 and its association with BAK1 or other substrates. Plasma membrane-dissociated BKI1 may also regulate other unknown components in the brassinosteroid signaling cascade. BSU1 is a nuclear serine/threonine phosphatase involved in the dephosphorylation of BES1 (27). […]

endogenous BRI1 = biological target: T2, endogenous BRI1; assay: Immunoprecipitation from BKI1-FLAG plants; type: binding; conditions: immunoprecipitation with anti-FLAG
Procedure: Short-day grown seedlings of Col-0 and transgenic plants containing BKI1-FLAG were ground to a fine powder in liquid nitrogen, and solubilized with 2× extraction buffer (100 mM Tris-HCl pH 7.5, 300 mM NaCl, 2 mM EDTA, 1% Triton, 10% glycerol, and protease inhibitor). The extracts were centrifuged at 5,000×g for 10 min, and the resultant supernatant was then spun at 100,000×g for 90 min at 4° C. to remove membrane fractions. The supernatant was incubated with pre-washed anti-FLAG M2 agarose gel (Sigma) for three hours at 4° C., and the agarose gel was washed five times with TBS Buffer containing 0.02% Tween 20. The immunoprecipitates were eluted with 1×SDS sample buffer by boiling for 5 min, separated on a 4-20% Novex Tris-Glycine SDS-PAGE gel (Invitrogen), transferred to PVDF membrane (Millipore), and detected with either anti-BRI1 antibody for endogenous BRI1 or monoclonal anti-FLAG M2 (Sigma) for BKI1-FLAG. Signals were visualized using the Odyssey Infrared Imaging system (LI-COR Biosciences Inc.).

Row | Molecule | inhibition of the interaction between the kinase domains of BRI1 and BAK1 [1] | interaction with endogenous BRI1 in vivo (endogenous BRI1)
1 | B1 | approximately 62% | –
2 | B2 | – | interacted
